Measurements as given in US20210115124A1 (Genentech, published 2021).

B1: G6.31 HC-A40E (Fab, name in Kabat numbering, V domains shown)
VH: EVQLVESGGGLVQPGGSLRLSCAASGFTISDYWIHWVRQEPGKGLEWVAGITPAGGYTYYADSVKGRFTISADTSKNTAYLQMNSLRAEDTAVYYCARFVFFLPYAMDYWGQGTLVTVSS
VL: DIQMTQSPSSLSASVGDRVTITCRASQDVSTAVAWYQQKPGKAPKLLIYSASFLYSGVPSRFSGSGSGTDFTLTISSLQPEDFATYYCQQGYGNPFTFGQGTKVEIK
notes: Fab
B2: G6.31 HC-A40E, HC-T57E (Fab, V domains shown)
VH: EVQLVESGGGLVQPGGSLRLSCAASGFTISDYWIHWVRQEPGKGLEWVAGITPAGGYEYYADSVKGRFTISADTSKNTAYLQMNSLRAEDTAVYYCARFVFFLPYAMDYWGQGTLVTVSS
VL: DIQMTQSPSSLSASVGDRVTITCRASQDVSTAVAWYQQKPGKAPKLLIYSASFLYSGVPSRFSGSGSGTDFTLTISSLQPEDFATYYCQQGYGNPFTFGQGTKVEIK
notes: Fab
B3: G6.31 HC-A40E, HC-T57E, LC-F83A, LC-N94A, LC-T22D (Fab, name in Kabat numbering, V domains shown)
VH: EVQLVESGGGLVQPGGSLRLSCAASGFTISDYWIHWVRQEPGKGLEWVAGITPAGGYEYYADSVKGRFTISADTSKNTAYLQMNSLRAEDTAVYYCARFVFFLPYAMDYWGQGTLVTVSS
VL: DIQMTQSPSSLSASVGDRVTIDCRASQDVSTAVAWYQQKPGKAPKLLIYSASFLYSGVPSRFSGSGSGTDFTLTISSLQPEDAATYYCQQGYGAPFTFGQGTKVEIK
notes: Fab
B4: G6.31 HC-A53R (Fab, name in Kabat numbering, V domains shown)
VH: EVQLVESGGGLVQPGGSLRLSCAASGFTISDYWIHWVRQAPGKGLEWVAGITPRGGYTYYADSVKGRFTISADTSKNTAYLQMNSLRAEDTAVYYCARFVFFLPYAMDYWGQGTLVTVSS
VL: DIQMTQSPSSLSASVGDRVTITCRASQDVSTAVAWYQQKPGKAPKLLIYSASFLYSGVPSRFSGSGSGTDFTLTISSLQPEDFATYYCQQGYGNPFTFGQGTKVEIK
notes: Fab
B5: G6.31 HC-Q81S (Fab, name in Kabat numbering, V domains shown)
VH: EVQLVESGGGLVQPGGSLRLSCAASGFTISDYWIHWVRQAPGKGLEWVAGITPAGGYTYYADSVKGRFTISADTSKNTAYLSMNSLRAEDTAVYYCARFVFFLPYAMDYWGQGTLVTVSS
VL: DIQMTQSPSSLSASVGDRVTITCRASQDVSTAVAWYQQKPGKAPKLLIYSASFLYSGVPSRFSGSGSGTDFTLTISSLQPEDFATYYCQQGYGNPFTFGQGTKVEIK
notes: Fab
B6: G6.31 LC-F83A, LC-N94A, LC-T22D (Fab, name in Kabat numbering, V domains shown)
VH: EVQLVESGGGLVQPGGSLRLSCAASGFTISDYWIHWVRQAPGKGLEWVAGITPAGGYTYYADSVKGRFTISADTSKNTAYLQMNSLRAEDTAVYYCARFVFFLPYAMDYWGQGTLVTVSS
VL: DIQMTQSPSSLSASVGDRVTIDCRASQDVSTAVAWYQQKPGKAPKLLIYSASFLYSGVPSRFSGSGSGTDFTLTISSLQPEDAATYYCQQGYGAPFTFGQGTKVEIK
notes: Fab
B7: G6.31 LC-N94Q (Fab, V domains shown)
VH: EVQLVESGGGLVQPGGSLRLSCAASGFTISDYWIHWVRQAPGKGLEWVAGITPAGGYTYYADSVKGRFTISADTSKNTAYLQMNSLRAEDTAVYYCARFVFFLPYAMDYWGQGTLVTVSS
VL: DIQMTQSPSSLSASVGDRVTITCRASQDVSTAVAWYQQKPGKAPKLLIYSASFLYSGVPSRFSGSGSGTDFTLTISSLQPEDFATYYCQQGYGQPFTFGQGTKVEIK
notes: Fab
B8: G6.31 LC-N94R (Fab, V domains shown)
VH: EVQLVESGGGLVQPGGSLRLSCAASGFTISDYWIHWVRQAPGKGLEWVAGITPAGGYTYYADSVKGRFTISADTSKNTAYLQMNSLRAEDTAVYYCARFVFFLPYAMDYWGQGTLVTVSS
VL: DIQMTQSPSSLSASVGDRVTITCRASQDVSTAVAWYQQKPGKAPKLLIYSASFLYSGVPSRFSGSGSGTDFTLTISSLQPEDFATYYCQQGYGRPFTFGQGTKVEIK
notes: Fab

Columns and labels:
human VEGF (hVEGF) [1] = target: T1, human VEGF (hVEGF) (human, UniProt P15692 181-395); assay: SPR single-cycle;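 as to Fold change (relative to G6.31): fab variants injected over hVEGF immobilized on a CM5 chip (Biacore T200), threefold dilution series from 0.02 to 50 nM, kinetics fitted with a 1:1 Langmuir model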
T1 construct: also called VEGF-A
T1 sequence: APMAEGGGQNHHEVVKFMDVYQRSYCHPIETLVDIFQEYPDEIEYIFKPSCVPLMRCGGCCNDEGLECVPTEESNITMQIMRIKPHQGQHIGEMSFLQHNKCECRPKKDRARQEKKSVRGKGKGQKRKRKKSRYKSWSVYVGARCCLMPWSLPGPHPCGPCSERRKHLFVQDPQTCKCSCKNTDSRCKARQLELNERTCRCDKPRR
Description: (§1) To determine the binding affinity of selected Fab variants, SPR measurement with a BIACORE® T200 instrument was used. Briefly, series S sensor chip CM5 was activated with 1-ethyl-3-(3-dimethylaminopropyl) carbodiimide (EDC) and N-hydroxysuccinimide (NHS) reagents according to the supplier's instructions, and human VEGF (hVEGF) was coupled to achieve 50-80 response units (RU), then following by blocking un-reacted groups with 1M ethanolamine.
(§2) Three-fold serial dilutions of Fab in HBS-P buffer (0.01 M HEPES pH 7.4, 0.15 M NaCl, 0.005% surfactant P20) from low (0.02 nM) to high (50 nM) were injected (flow rate: 30 μl/min). The binding responses on hVEGF were corrected by subtracting of RU from a blank flow cell. The sensorgram was recorded and subject to reference and buffer subtraction before evaluating by BIACORE® T200 Evaluation Software (version 2.0). Association rates (kₒₙ) and dissociation rates (koff) were calculated using a simple one-to-one Langmuir binding model. The equilibrium dissociation constant (Kd) was calculated as the ratio koff/kₒₙ.

human VEGF (hVEGF) [2] = target: T1, human VEGF (hVEGF); assay: SPR single-cycle; remark: listed apart in the source;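 as to Fold change (relative to G6.31): fab variants injected over hVEGF immobilized on a CM5 chip (Biacore T200), threefold dilution series from 0.02 to 50 nM, kinetics fitted with a 1:1 Langmuir model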
Description: as §1, §2

human VEGF (hVEGF) [3] = target: T1, human VEGF (hVEGF); assay: BIACORE SPR on immobilised hVEGF; label beside the mutation on the structure of the VEGF-bound G6 Fab (PDB 2FJG)
human VEGF (hVEGF) [4] = target: T1, human VEGF (hVEGF); assay: SPR
Description: as §1, §2

human VEGF (hVEGF) [5] = target: T1, human VEGF (hVEGF); assay: SPR multiple-cycle
Description: as §1, §2

Binder	Fold difference (relative to G6.31) (human VEGF (hVEGF) [1]) [fold]	Kd (human VEGF (hVEGF) [1]) [nM]	koff (human VEGF (hVEGF) [1]) [s⁻¹]	kon (human VEGF (hVEGF) [1]) [M⁻¹ s⁻¹]	fold change in binding affinity (Kd) compared to G6.31 (human VEGF (hVEGF) [3]) [x]	Kd (human VEGF (hVEGF) [4]) [nM]	koff (human VEGF (hVEGF) [4]) [s⁻¹]	kon (human VEGF (hVEGF) [4]) [M⁻¹ s⁻¹]	also measured
B1	3.8	0.41	0.000466	1.13e+06	4	–	–	–	Fold change (relative to G6.31) (human VEGF (hVEGF) [2]): 0.6 fold; Kd (human VEGF (hVEGF) [2]): 2.63 nM; koff (human VEGF (hVEGF) [2]): 0.000517 s⁻¹; kon (human VEGF (hVEGF) [2]): 197000 M⁻¹ s⁻¹
B2	–	–	–	–	–	0.272	0.000804	2.96e+06	–
B3	–	–	–	–	–	0.597	0.000718	1.2e+06	–
B4	3.7	0.42	0.00035	829000	4	–	–	–	–
B5	3.4	0.45	0.000487	1.07e+06	3	–	–	–	–
B6	–	–	–	–	–	0.558	0.000744	1.33e+06	–
B7	0.3	4.78	0.00133	278000	–	–	–	–	Kd (human VEGF (hVEGF) [5]): 1.14 nM; koff (human VEGF (hVEGF) [5]): 0.000362 s⁻¹; kon (human VEGF (hVEGF) [5]): 318000 M⁻¹ s⁻¹
B8	–	–	–	–	–	–	–	–	Kd (human VEGF (hVEGF) [5]): 2.09 nM; koff (human VEGF (hVEGF) [5]): 0.000407 s⁻¹; kon (human VEGF (hVEGF) [5]): 194000 M⁻¹ s⁻¹
